Sequences and labels used below:
B1: H2-Kb / Ed28 (parent complex)
chain 1: AQSVTQPDARVTVSEGASLQLRCKYSYFGTPYLFWYVQYPRQGLQLLLKYYPGDPVVQGVNGFEAEFSKSNSSFHLRKASVHWSDWAVYFCAVSPGSGGKLTLGAGTRLQVNL
chain 2: DSGVVQSPRHIIKEKGGRSVLTCIPISGHSNVVWYQQTLGKELKFLIQHYEKVERDKGFLPSRFSVQQFDDYHSEMNMSALELEDSAMYFCASSPRASDYTFGSGTRLLVI
chain 3: not shown
chain 4: IQKTPQIQVYSRHPPENGKPNILNCYVTQFHPPHIEIQMLKNGKKIPKVEMSDMSFSKDWSFYILAHTEFTPTETDTYACRVKHDSMAEPKTVYWDRDM
chain 5: SIINFEKL
B2: H2-Kb / Ed21 (parent complex)
chain 1: AQSVTQPDARVTVSEGASLQLRCKYSYFGTPYLFWYVQYPRQGLQLLLKYYPGDPVVQGVNGFEAEFSKSNSSFHLRKASVHWSDWAVYFCAVSMSGGYKVVFGSGTRLLVSP
chain 2: B1 chain 2 with A97Q, S98T
chain 3: not shown
chain 4: B1 chain 4
chain 5: SIINFEKL

Where a chain is given by its changes, count along the chain named.
Further: test concentration or dose not given here.

Variants of B1 are the subject of the first experiment. Briefly: % of reporter cells activated (NFAT-GFP), raw.
With chain 5 E6S, the ratio to parent stood at 0.039.
With chain 5 E6N, the ratio to parent is 0.22.
Same read-out and setting: with chain 5 E6W the figure was 0.00894; with chain 5 E6D, 0.533.
On the same count and under the same terms, to chain 5 E6H belongs 0.116; to chain 5 E6L, 0.014; to chain 5 E6I, 0.0144.
Still for that read-out and setting: to chain 5 E6R belongs 0.0718; to chain 5 E6F, 0.013.
As to chain 5 E6P, the ratio to parent stood at 0.0742.
As to chain 5 E6V, the ratio to parent turned out to be 0.0103.
As to chain 5 E6C, the ratio to parent turned out to be 0.0175.
chain 5 E6Y: the ratio to parent is 0.0885.
As to chain 5 E6K, the ratio to parent turned out to be 0.702.
On the same count and under the same terms, with chain 5 E6A the figure was 0.238.
Still for that read-out and setting: to chain 5 E6T belongs 0.0253.
Still for that read-out and setting: with chain 5 E6Q the figure was 0.315; with chain 5 E6G, 0.651; with chain 5 L8H, 0.85.
Take chain 5 L8I: the ratio to parent is 1.02.
The same measure, in the same setting: with chain 5 L8P the figure was 0.83; with chain 5 L8S, 0.563.
Consider chain 5 L8T, for which the ratio to parent came out at 0.832.
Still for that read-out and setting: to chain 5 L8Q belongs 0.602; to chain 5 L8V, 0.761; to chain 5 L8W, 0.685.
The same measure, in the same setting: with chain 5 L8D the figure was 0.475; with chain 5 L8M, 0.862; with chain 5 L8R, 0.915.
With chain 5 L8K, the ratio to parent was found to be 0.584.
On to chain 5 L8F, for which the ratio to parent turned out to be 1.02.
The same measure, in the same setting: with chain 5 L8G the figure was 0.947; with chain 5 L8E, 0.493; with chain 5 L8C, 0.616.
With chain 5 L8A, the ratio to parent amounted to 0.709.
Same read-out and setting: with chain 5 S1K the figure was 0.445; with chain 5 S1R, 0.321.
Consider chain 5 S1L, for which the ratio to parent amounted to 0.332.
Still for that read-out and setting: with chain 5 S1T the figure was 1.13.
On the same count and under the same terms, to chain 5 S1I belongs 0.433.
Same read-out and setting: to chain 5 S1Y belongs 0.825; to chain 5 S1N, 0.293; to chain 5 S1A, 1.05.
With chain 5 S1W, the ratio to parent was 0.723.
Still for that read-out and setting: to chain 5 S1H belongs 1.
On to chain 5 S1V, for which the ratio to parent was 0.67.
On to chain 5 S1C, for which the ratio to parent was found to be 0.59.
As for chain 5 S1F, the ratio to parent was 0.965.
As for chain 5 S1P, the ratio to parent is 0.693.
With chain 5 S1G, the ratio to parent turned out to be 0.898.
Same read-out and setting: with chain 5 S1Q the figure was 0.81; with chain 5 S1D, 0.536.
Still for that read-out and setting: to chain 5 S1E belongs 0.798.
Consider chain 5 I2G, for which the ratio to parent is 1.06.
The same measure, in the same setting: with chain 5 I2L the figure was 1.14.
Consider chain 5 I2H, for which the ratio to parent is 0.659.
Still for that read-out and setting: with chain 5 I2R the figure was 0.92; with chain 5 I2N, 0.898; with chain 5 I2Y, 0.58.
The same measure, in the same setting: with chain 5 I2M the figure was 0.857; with chain 5 I2S, 1.14.
Still for that read-out and setting: with chain 5 I2V the figure was 1.3; with chain 5 I2Q, 0.574.
For chain 5 I2P, the ratio to parent came to 1.2.
For chain 5 I2D, the ratio to parent stood at 1.3.
For chain 5 I2F, the ratio to parent came out at 1.01.
chain 5 I2K: the ratio to parent amounted to 0.837.
With chain 5 I2W, the ratio to parent is 0.702.
Same read-out and setting: to chain 5 I2E belongs 0.981; to chain 5 I2C, 1.15.
Still for that read-out and setting: with chain 5 I2A the figure was 1.25; with chain 5 F5C, 1.13; with chain 5 F5V, 0.772.
Still for that read-out and setting: with chain 5 F5A the figure was 0.81.
Regarding chain 5 F5L, the ratio to parent amounted to 0.844.
In the case of chain 5 F5W, the ratio to parent is 0.773.
On the same count and under the same terms, to chain 5 F5R belongs 0.774.
As for chain 5 F5M, the ratio to parent came to 0.741.
Still for that read-out and setting: to chain 5 F5K belongs 0.56; to chain 5 F5N, 0.742; to chain 5 F5P, 0.74.
Turning to chain 5 F5T, the ratio to parent stood at 1.17.
Still for that read-out and setting: to chain 5 F5Y belongs 0.875.
Same read-out and setting: with chain 5 F5G the figure was 0.564; with chain 5 F5D, 0.687; with chain 5 F5E, 0.483.
In the case of chain 5 F5H, the ratio to parent turned out to be 1.
Same read-out and setting: to chain 5 I3L belongs 0.98; to chain 5 I3E, 0.656; to chain 5 I3T, 1.31.
On to chain 5 I3C, for which the ratio to parent was determined as 0.894.
Consider chain 5 I3M, for which the ratio to parent stood at 0.959.
Still for that read-out and setting: to chain 5 I3V belongs 1.08; to chain 5 I3Y, 0.369; to chain 5 I3K, 0.651.
The same measure, in the same setting: to chain 5 I3R belongs 0.134; to chain 5 I3P, 0.898; to chain 5 I3A, 0.632.
On the same count and under the same terms, to chain 5 I3G belongs 0.836; to chain 5 I3D, 0.727.
Consider chain 5 I3S, for which the ratio to parent came to 1.14.
Turning to chain 5 I3W, the ratio to parent turned out to be 0.592.
As to chain 5 I3F, the ratio to parent amounted to 0.6.
Take chain 5 I3Q: the ratio to parent came to 0.449.
With chain 5 I3N, the ratio to parent is 1.16.
The same measure, in the same setting: to chain 5 I3H belongs 1.24; to chain 5 N4K, 0.504.
Same read-out and setting: with chain 5 N4H the figure was 0.0455; with chain 5 N4P, 0.00481.
The same measure, in the same setting: to chain 5 N4A belongs 0.0295; to chain 5 N4Y, 0.0195; to chain 5 N4I, 0.167.
Consider chain 5 N4Q, for which the ratio to parent came to 0.00495.
As to chain 5 N4V, the ratio to parent was found to be 0.00909.
The same measure, in the same setting: to chain 5 N4D belongs 0.035.
On the same count and under the same terms, to chain 5 N4L belongs 0.329.
For the variant chain 5 N4R, the ratio to parent turned out to be 0.227.
The same measure, in the same setting: with chain 5 N4C the figure was 0.0197.
The same measure, in the same setting: to chain 5 N4E belongs 0.0544; to chain 5 N4F, 0.0123.
On the same count and under the same terms, to chain 5 N4T belongs 0.0349; to chain 5 N4M, 0.00709.
With chain 5 K7G, the ratio to parent is 0.185.
Regarding chain 5 K7Y, the ratio to parent amounted to 0.48.
For chain 5 K7V, the ratio to parent was determined as 0.159.
On to chain 5 K7F, for which the ratio to parent worked out at 0.0786.
The same measure, in the same setting: with chain 5 K7M the figure was 0.104; with chain 5 K7Q, 0.141.
Regarding chain 5 K7A, the ratio to parent turned out to be 0.162.
For the variant chain 5 K7P, the ratio to parent was 0.145.
On the same count and under the same terms, with chain 5 K7I the figure was 0.197; with chain 5 K7R, 0.496; with chain 5 K7T, 0.115.
Same read-out and setting: with chain 5 K7N the figure was 0.242.
Still for that read-out and setting: with chain 5 K7W the figure was 0.407; with chain 5 K7H, 0.81.
For chain 5 K7D, the ratio to parent is 0.00937.
On to chain 5 K7S, for which the ratio to parent is 0.406.
On the same count and under the same terms, to chain 5 K7L belongs 0.244; to chain 5 K7C, 0.0363.

A further experiment covers variants of B2. Briefly: % of reporter cells activated (NFAT-GFP), raw.
On to chain 5 L8G, for which the ratio to parent was 0.966.
On the same count and under the same terms, to chain 5 E6Q belongs 0.918; to chain 5 E6V, 0.0269.
Consider chain 5 K7N, for which the ratio to parent was found to be 0.706.
The same measure, in the same setting: with chain 5 N4L the figure was 0.618; with chain 5 S1T, 0.927; with chain 5 F5N, 0.947.
Still for that read-out and setting: with chain 5 F5S the figure was 0.886.
In the case of chain 5 F5I, the ratio to parent was determined as 0.891.
In the case of chain 5 I2V, the ratio to parent is 1.04.
